Experimental data reported in patent publication US20090042993.

How the values were obtained:
[1] = molecular target: BACE1-myc (myc-tagged at the C-terminus version of BACE1), P56817
[2] = molecular target: BACE1Ala (BACE1 with the seven acetylated lysine residues mutated to alanine), P56817
[3] = molecular target: BACE1 (β-site APP cleaving enzyme 1), native form BACE1WT, P56817
Chain of BACE1 (β-site APP cleaving enzyme 1), native form BACE1WT, P56817 (P56817 46-501): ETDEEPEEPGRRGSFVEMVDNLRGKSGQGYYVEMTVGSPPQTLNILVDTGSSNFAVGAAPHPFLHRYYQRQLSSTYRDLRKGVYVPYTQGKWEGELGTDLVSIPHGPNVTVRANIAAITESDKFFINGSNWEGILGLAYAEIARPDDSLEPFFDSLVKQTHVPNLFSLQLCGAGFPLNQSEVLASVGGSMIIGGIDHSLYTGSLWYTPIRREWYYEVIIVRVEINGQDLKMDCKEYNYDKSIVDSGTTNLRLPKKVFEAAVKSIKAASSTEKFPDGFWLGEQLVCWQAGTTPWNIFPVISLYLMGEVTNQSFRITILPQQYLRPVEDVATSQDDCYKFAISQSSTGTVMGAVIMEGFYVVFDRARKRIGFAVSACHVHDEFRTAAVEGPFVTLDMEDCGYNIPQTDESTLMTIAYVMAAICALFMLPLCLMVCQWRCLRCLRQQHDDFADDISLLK

Chain of BACE1Ala (BACE1 with the seven acetylated lysine residues mutated to alanine), P56817 (P56817 other isoform, or with tags, fused parts or gaps, change not shown): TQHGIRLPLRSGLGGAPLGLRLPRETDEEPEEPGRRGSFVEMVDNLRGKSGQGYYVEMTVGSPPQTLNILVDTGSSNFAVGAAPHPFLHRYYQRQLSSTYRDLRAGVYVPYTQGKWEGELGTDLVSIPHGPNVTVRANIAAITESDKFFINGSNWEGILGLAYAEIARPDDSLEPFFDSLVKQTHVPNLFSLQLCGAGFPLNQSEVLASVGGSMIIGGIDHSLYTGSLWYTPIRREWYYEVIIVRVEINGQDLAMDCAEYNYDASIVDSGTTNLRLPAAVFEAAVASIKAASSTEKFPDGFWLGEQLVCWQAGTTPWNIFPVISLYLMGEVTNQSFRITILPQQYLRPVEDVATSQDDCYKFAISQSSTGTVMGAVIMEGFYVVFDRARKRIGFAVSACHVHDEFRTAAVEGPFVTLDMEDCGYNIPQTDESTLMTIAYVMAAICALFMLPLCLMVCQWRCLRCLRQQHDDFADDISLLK
Chain of BACE1-myc (myc-tagged at the C-terminus version of BACE1), P56817 (P56817 46-501): as the sequence (P56817 46-501) above

B1: purified recombinant HAT fragment of p300 (histone acetyl transferase domain of recombinant CBP/p300) (protein)
chain: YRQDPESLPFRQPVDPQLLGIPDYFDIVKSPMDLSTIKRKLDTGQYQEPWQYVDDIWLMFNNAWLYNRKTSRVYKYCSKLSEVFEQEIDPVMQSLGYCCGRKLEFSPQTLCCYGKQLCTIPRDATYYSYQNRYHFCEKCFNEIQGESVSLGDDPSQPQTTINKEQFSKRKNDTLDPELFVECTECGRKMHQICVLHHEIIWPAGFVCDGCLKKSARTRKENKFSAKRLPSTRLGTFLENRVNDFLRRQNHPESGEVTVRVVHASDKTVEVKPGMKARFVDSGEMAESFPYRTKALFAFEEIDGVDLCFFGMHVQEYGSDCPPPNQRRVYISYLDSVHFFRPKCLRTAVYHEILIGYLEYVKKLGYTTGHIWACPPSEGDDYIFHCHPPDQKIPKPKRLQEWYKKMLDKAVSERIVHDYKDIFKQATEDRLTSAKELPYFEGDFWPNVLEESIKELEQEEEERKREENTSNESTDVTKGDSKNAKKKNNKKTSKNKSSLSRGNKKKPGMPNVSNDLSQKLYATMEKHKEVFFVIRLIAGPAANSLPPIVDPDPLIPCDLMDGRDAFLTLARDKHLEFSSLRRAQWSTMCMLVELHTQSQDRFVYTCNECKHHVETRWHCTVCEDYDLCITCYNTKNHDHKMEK
in vitro acetylation ([3H]Acetyl-CoA incorporation into BACE1, scintillation counting) [1]: BACE1 can be acetylated in vitro, provided that is incubated in the presence of an enzymatically active acetyltransferase | in vitro acetylation ([3H]Acetyl-CoA incorporation into BACE1, scintillation counting) [2]: but not BACE1Ala | in vitro acetylation ([3H]Acetyl-CoA incorporation into BACE1, scintillation counting) [3]: resulted in acetylation of BACE1WT
